In FireProtDB (doi:10.1021/bi00435a062):

B1: Tissue-type plasminogen activator, P00750 (parent)
chain: MDAMKRGLCCVLLLCGAVFVSPSQEIHARFRRGARSYQVICRDEKTQMIYQQHQSWLRPVLRSNRVEYCWCNSGRAQCHSVPVKSCSEPRCFNGGTCQQALYFSDFVCQCPEGFAGKCCEIDTRATCYEDQGISYRGTWSTAESGAECTNWNSSALAQKPYSGRRPDAIRLGLGNHNYCRNPDRDSKPWCYVFKAGKYSSEFCSTPACSEGNSDCYFGNGSAYRGTHSLTESGASCLPWNSMILIGKVYTAQNPSAQALGLGKHNYCRNPDGDAKPWCHVLKNRRLTWEYCDVPSCSTCGLRQYSQPQFRIKGGLFADIASHPWQAAIFAKHRRSPGERFLCGGILISSCWILSAAHCFQERFPPHHLTVILGRTYRVVPGEEEQKFEVEKYIVHKEFDDDTYDNDIALLQLKSDSSRCAQESSVVRTVCLPPADLQLPDWTECELSGYGKHEALSPFYSERLKEAHVRLYPSSRCTSQHLLNRTVTDNMLCAGDTRSGGPQANLHDACQGDSGGPLVCLNDGRMTLVGIISWGLGCGQKDVPGVYTKVTNYLDWIRDNMRP

Variants of: B1
Settings: Homo sapiens, pH 4.5, Thermal, DSC, reversible: yes, structure 1TPK, whole UniProt chain shown
[1] = 64.3 °C, Citric acid trisodium citrate 0.1 M 0.1 M
[2] = Citric acid/trisodium citrate 0.1 M/0.1 M/

Variant | ddG of mutation (higher = less stable) [1] [kJ/mol] | heat capacity change of unfolding [1] [kcal/mol/K] | Tm [2] [°C] | change of melting temperature, mutant - wild type (higher = more stable) [2] [°C] | unfolding enthalpy (calorimetric) [2] [kJ/mol] | unfolding enthalpy (calorimetric) [1] [kJ/mol]
V280S | 10 | 0.9 | 52.9 | -11.4 | 265 | 
V280L | 7.95 | 0.9 | 55.8 | -8.5 | 293 | 
V280T | 4.18 | 0.9 | 60 | -4.3 | 314 | 
V280A |  |  | 55.5 | -8.8 | 303 | 
V280I | -1.26 | 0.9 | 64.8 | 0.5 | 282 | 282
V280M | 9.2 |  | 54.4 | -9.9 | 284 | 
